{"source": "the nanobody polyreactivity screen of Harvey et al. (2022)"}
{"test": "yeast display, Sf9 membrane polyspecificity reagent, FACS + sequencing; frameworks hold sequencing errors", "in_short": "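Using colony PCR, genes from sorted yeast display clones were amplified, then sequenced on MiSeq at 2 × 250 and filtered by CDR length. The clones had been stained with 10% biotinylated, detergent-solubilized Sf9 membrane reagent for 1 hour at 4 °C and sorted by FACS into low and high (top ~1%) gates on anti-HA and streptavidin fluorescence. Polyreactivity labels come from the gate of origin.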"}
{"sequence": "QVQLVESGGGLVQAGGSLRLSCAASGSTFYPNAMGWYRQAPGKERELVADISYSGGRTYYADSVKGRFTISRDNAKNTVYLQMNSLKPEYTAVYYCAARKVTYHYQWMDYWGQGTQVTVSS", "polyreactivity (PSR sort gate)": "low polyreactivity"}
{"sequence": "QVQLVESGGGLVQAGGSLRLSCAASGSTFYPYAMGWYRQAPGKERELVAAISLSDTITYYADSVKGRFTISRDNAKNTVYLQMNSLKPEDTAVYYCAAETPGFVLYEYWGQGTQVTVSS", "polyreactivity (PSR sort gate)": "high polyreactivity"}
{"sequence": "QVQLVESGGGLVQAGGSLRLSCAASGSTFYPYAMGWYRQAPGKERELVADITNSGSTYYADSVKGRFTISRDNAKNTVYLQMNCLKPEDTAVYYCSASVYSVADYYYWGQGTQVTVSS", "polyreactivity (PSR sort gate)": "low polyreactivity"}
{"sequence": "QVQLVESGGGLVQAGGSLRLSCAASGSTFYPYAMGWYRQAPGKERELVAGIRSGGSTNYADSVKGRFTISRDNAKNTVYLQMNSLKPEDTAVYYCAARRWRTQDRSHFDYWGQGTQVTVSS", "polyreactivity (PSR sort gate)": "low polyreactivity"}
{"sequence": "QVQLVESGGGLVQAGGSLRLSCAASGSTFYPYAMGWYRQAPGKERELVASISSRGGTTYYADSVKGRFTISRDNAKNTVYLQMNSLKPEDTAVYYCAARLTYAERKWPTKYYWGQGTQVTVSS", "polyreactivity (PSR sort gate)": "high polyreactivity"}
{"sequence": "QVQLVESGGGLVQAGGSLRLSCAASGSTFYPYTMGWYRQAPGKERELFAAITSGGNTNYADSVKGRFTISRDNAKNTVYLQMNSLKPEDTAVYYCNAEPEGTTGNYFPYDYWGQGTQVTVSS", "polyreactivity (PSR sort gate)": "low polyreactivity"}
{"sequence": "QVQLVESGGGLVQAGGSLRLSCAASGSTFYPYTMGWYRQAPGKERELVAAITSGGNTNYADSVKGRFTISRDNAKNTVYLQMNSLKPEDTAVYYCNAEPEGTTGNYFPYDYWGQGTQVTVSS", "polyreactivity (PSR sort gate)": "low polyreactivity"}
{"sequence": "QVQLVESGGGLVQAGGSLRLSCAASGSTFYQNAMGWYRQAPGKEMELVAAISSSGRTYYADSVKGRFTISRDNAKNTVFLQMNSLKPEDTAVYYCAFGAYGSLYSIRVAYGRMDYWGQGTQVTVSS", "polyreactivity (PSR sort gate)": "high polyreactivity"}
{"sequence": "QVQLVESGGGLVQAGGSLRLSCAASGSTFYQYAMGWYRQAPGKERELGAAITRSGGSTYYADSVKGRFTISRDNAKNTVYLQMNSLKPEDPAVYYCAADRARRGIRDYYWGQGTQVTVSS", "polyreactivity (PSR sort gate)": "high polyreactivity"}
{"sequence": "QVQLVESGGGLVQAGGSLRLSCAASGSTFYQYVMGWYRQAPGKERELVAAISGSGGSTYYADSVKGRFTISRDNAKNTVYLQMNSLKPEDTAVYYCAAVGRSKRDGYWGQGTQVTVSS", "polyreactivity (PSR sort gate)": "high polyreactivity"}
{"sequence": "QVQLVESGGGLVQAGGSLRLSCAASGSTFYRFAMGWYRTAPGKERELVAAISRSGGSTYYADTVKGRFTISRDNAKNTVYLQMNSLKPEDTAVYYCAAQYTFYYRSWSDYWGQGTQVTVSS", "polyreactivity (PSR sort gate)": "high polyreactivity"}
{"sequence": "QVQLVESGGGLVQAGGSLRLSCAASGSTFYRNAMGWYRQAPGKERELVAAIRKTGGSTHYADSVKGRFTISRDNAKNTVYLQMNSLKPEDTAVYYCNATYIYGWYNYWGQGTQVTVSS", "polyreactivity (PSR sort gate)": "low polyreactivity"}
{"sequence": "QVQLVESGGGLVQAGGSLRLSCAASGSTFYRNAMGWYRQAPGKERELVAGISWRGGSTYYADSVKGRFTISRDNAKNTVYLQMNSLKPEDTAVYYCNTLGAGGYSSPADYYYWGQGTQVTVSS", "polyreactivity (PSR sort gate)": "high polyreactivity"}
{"sequence": "QVQLVESGGGLVQAGGSLRLSCAASGSTFYRNAMGWYRQAPGKERELVATINRGGSTYYADSVKGRFTISRDNAKNTVYLQRNSLNPEDTAVYYCAKDSYYAGRFIYTPRAKYGYWGQGTQVTVSS", "polyreactivity (PSR sort gate)": "high polyreactivity"}
{"sequence": "QVQLVESGGGLVQAGGSLRLSCAASGSTFYRNARAWYRQAPGKERELVAGISYGGGSTYYADSVKGRFTISRDNAKNTVYLQMNSLKPEDTAVYYCNAVWVKRHYYYWGQGSQVTVSS", "polyreactivity (PSR sort gate)": "low polyreactivity"}
{"sequence": "QVQLVESGGGLVQAGGSLRLSCAASGSTFYRNTMGWYRQAPGKERELVAAISRTGASTHYADSVKGRFTISRDNAKNTVYLQMNSLKPEDTAVYYCNAVPAIGKYYGGGYWGQGTQVTVSS", "polyreactivity (PSR sort gate)": "high polyreactivity"}
{"sequence": "QVQLVESGGGLVQAGGSLRLSCAASGSTFYRYAKGRYRQPPGKERELVASITRNVGSTYYADSVKGRFTISRDNAKNTVYLQMKSVKPEDTAVYFCAAKSGSFVHGGYQTPVYGSDYWGQGSQVTVSS", "polyreactivity (PSR sort gate)": "high polyreactivity"}
{"sequence": "QVQLVESGGGLVQAGGSLRLSCAASGSTFYRYAMGWYRQAPGKERELVAAISNSGGSTNYADSVKGRFTISRDNAKNTVYLQMNSLKPEDTAVYYCAADPYDLVWVEDYDYWGQGTQVTVSS", "polyreactivity (PSR sort gate)": "high polyreactivity"}
{"sequence": "QVQLVESGGGLVQAGGSLRLSCAASGSTFYRYAMGWYRQAPGKERELVAAISSSGGSTYYADSVKGRFTISRDNAKNTVYLQMNSLKPEDTAVYYCNAAYRVRRFDYWGQGTQVTVSS", "polyreactivity (PSR sort gate)": "low polyreactivity"}
{"sequence": "QVQLVESGGGLVQAGGSLRLSCAASGSTFYRYAMGWYRQAPGKERELVAAITWNGGSTYYADSVKGRFTISRDNAKNTVYLQMNSLKPEDTAVYYCNKVSRRDTYEYDYWGQGTQVTVSS", "polyreactivity (PSR sort gate)": "high polyreactivity"}
{"sequence": "QVQLVESGGGLVQAGGSLRLSCAASGSTFYRYAMGWYRQAPGKERELVARITQNGGSTYYADSVKGRFTISRDNAKNTVYLQMNSLKPEDTAVYYCADRWISVLSYGKYDYWGQGTQVTVSS", "polyreactivity (PSR sort gate)": "high polyreactivity"}
{"sequence": "QVQLVESGGGLVQAGGSLRLSCAASGSTFYRYDMGWYRQAPGKERELVAAITSVGSTKYADSVKGRFTISRDNAKNTVYLQMNSLKPEDNAVYYCNVDYIDWGQWYTNYPLSGYDYWGQGTQVTVSS", "polyreactivity (PSR sort gate)": "low polyreactivity"}
{"sequence": "QVQLVESGGGLVQAGGSLRLSCAASGSTFYRYMGWYRQAPGKERELVADISSSGDTYYADSVKGRFTISRDNAKNTVYLQMNSLKPEDTAVYYCAADVSVGYWWSYSMDYWGQGTQVTVSS", "polyreactivity (PSR sort gate)": "high polyreactivity"}
{"sequence": "QVQLVESGGGLVQAGGSLRLSCAASGSTFYRYTMGWYRQAPGKERELVAAISRSGGRTYYADSVKGRFTISRDKAKNTVSVQMNSLKPEDTAVYYCAAARRYGRYFGYPMEYWGQGTQVTVTS", "polyreactivity (PSR sort gate)": "high polyreactivity"}
{"sequence": "QVQLVESGGGLVQAGGSLRLSCAASGSTFYSNAMGWYRQAPGKERELVAGISGSGGSSYYADSVKGRFTFSRDNAKNTVKLQMNSLKPEDTAVYYCNARKTRSYFRFDSWGQGTQVTVSS", "polyreactivity (PSR sort gate)": "low polyreactivity"}
{"sequence": "QVQLVESGGGLVQAGGSLRLSCAASGSTFYSNAMGWYRQAPGKERELVARISWIGTSTYYADSVKGRFTISRDNAKNTVYLQMNSLKPEDTAVYDCAAGTVGPRRRRYIWLDYWGQGTQVTVSS", "polyreactivity (PSR sort gate)": "high polyreactivity"}
{"sequence": "QVQLVESGGGLVQAGGSLRLSCAASGSTFYSYAMGWYRQAPGKEREFVAAITDSGGSTYYADSVTGRFTISRDNAKNTVYLQMNSLKPEDTAVYYCAKRQYQSYIRGPYYYWGQGTQVTVSS", "polyreactivity (PSR sort gate)": "low polyreactivity"}
{"sequence": "QVQLVESGGGLVQAGGSLRLSCAASGSTFYSYAMGWYRQAPGKERELVAAISWDGGRTYYADSVKGRFTISRDNAKNTVYLQMNSLKPEDTAVYYCSADYPTYRHYYWGQGTQVTVSS", "polyreactivity (PSR sort gate)": "low polyreactivity"}
{"sequence": "QVQLVESGGGLVQAGGSLRLSCAASGSTFYSYAMGWYRQAPGKERELVAAISWRGGSTYYADSVKGRFTISRDNAKNTVYLQMNSLKPEDPEVYYCAAYRGDGYEYWGQGTQVTVSS", "polyreactivity (PSR sort gate)": "high polyreactivity"}
{"sequence": "QVQLVESGGGLVQAGGSLRLSCAASGSTFYSYAMGWYRQAPGKERELVAAITSGGSTNYADSVKGRFTISRDNAKNTVYLQMNRLKPEDTAVYYCARKYWHRSYGYDYWGQGTQVTVSS", "polyreactivity (PSR sort gate)": "low polyreactivity"}
{"sequence": "QVQLVESGGGLVQAGGSLRLSCAASGSTFYSYAMGWYRQAPGKERELVAAITYSDGDTYYADSVKGRFTISRDNAKNTVYLQMNSLKPEDTAVYYCAAEYQGQPGTGNLEYWGQGTQVTVSS", "polyreactivity (PSR sort gate)": "low polyreactivity"}
{"sequence": "QVQLVESGGGLVQAGGSLRLSCAASGSTFYSYAMGWYSQAPGKERELVARIRWSGYTYSADSVKGRFTISRDNAKNTVYLQMNSLKPEDTAVSYCAAKRGFHIADYWGQGTQVTVSS", "polyreactivity (PSR sort gate)": "high polyreactivity"}
{"sequence": "QVQLVESGGGLVQAGGSLRLSCAASGSTFYTNAMGWSRQAPGKQREFVAALSGRGSNTYYADSVKGRFTISRYNAKNTVYLQMNSLKPEDTAVYYCAARRLAGFGYWGQGTQVTVSS", "polyreactivity (PSR sort gate)": "high polyreactivity"}
{"sequence": "QVQLVESGGGLVQAGGSLRLSCAASGSTFYTNAMGWYRQAPGKERELVAAISYSGGGTYYADSVKGRFTISRDNAKNTVYLQMNSLKPEDTAVYYCAADTLQRAFVLYDYWGQGTQVTVSS", "polyreactivity (PSR sort gate)": "high polyreactivity"}
{"sequence": "QVQLVESGGGLVQAGGSLRLSCAASGSTFYTNDMGWYRQAPGKERELVAAITSAGNTNYADSVKGRFTISRDNAKNTVYLQMNSLKPEDTAVYYYYYYQYDYWGQGTQVTVSS", "polyreactivity (PSR sort gate)": "low polyreactivity"}
{"sequence": "QVQLVESGGGLVQAGGSLRLSCAASGSTFYTYAMGWYRQAPGKERELVAAISWRTGSTYYADSVKGRFTISRDNAKNTVYLQMNSLKPEDTAVYYCATDYYIDTWDWYEEYEYWGQGTQVTVSS", "polyreactivity (PSR sort gate)": "high polyreactivity"}
{"sequence": "QVQLVESGGGLVQAGGSLRLSCAASGSTFYTYAMGWYRQAPGKERELVATISRGGGRTYYADSVKGRFTISRDNAKNTVYLQMNSLKPEDTAVYYCAARLYSSSYNSEQYYYWGQGTQVTVSS", "polyreactivity (PSR sort gate)": "high polyreactivity"}
{"sequence": "QVQLVESGGGLVQAGGSLRLSCAASGSTFYTYTMGWYRQAPGKERELVAAISSSGGDTYYADSVKGRFTISRDNAKNTVYLQMNSLKPEDSAVYYCAALGAFPSLEFDYWGQGTQVTVSS", "polyreactivity (PSR sort gate)": "low polyreactivity"}
{"sequence": "QVQLVESGGGLVQAGGSLRLSCAASGSTFYTYTMGWYRQAPGKERELVAAITWSGGSTYYADSVKGRFTISRDNANNTVYLQMNSLKPEDTAVYYCNADQDYKGARPSGMDYCGQGTQVTVSS", "polyreactivity (PSR sort gate)": "low polyreactivity"}
{"sequence": "QVQLVESGGGLVQAGGSLRLSCAASGSTFYVNAMGWYRQAPGTERELVAAIRSAGRTNYADSVKGRFTSSRDNAKNTVYLQMNSLKPEDTAVYYCAAEVPHWPYYGRLHDRDYWGQGTQVTVSS", "polyreactivity (PSR sort gate)": "low polyreactivity"}
